Results published in patent publication US20240279601A1, “METHODS OF GENERATING SACRAL NEURAL CREST LINEAGES AND USES THEREOF” (MEMORIAL SLOAN-KETTERING CANCER CENTER, priority 2021, published 2024).
Ends that are not written are not given here.

What was measured:
hPSCs [1] = test: HOX and NC gene expression (qRT-PCR) during neural crest differentiation of hPSCs; format: cell-based, human; conditions: for expression of HOX regulatory genes (CDX1, CDX2, CDX4): combined treatment with CHIR99021 and FGF2; for expression of posterior genes HoxB7, HoxC9, HoxA10 and CDX4: different concentrations of FGF2 and CHIR99021 together
Method: NC differentiation. The basic NC differentiation protocols used are based on previous works (Fattahi et al., Nature 531, 105-109, 2016; Tchieu et al., Cell Stem Cell 21, 399-410 e397, 2017). Briefly, matrigel (Thermo Fisher, A1413201) was diluted at 1:100 ratio in DMEMF-12 (Thermo Fisher, 21331020) and plates were coated with the diluted matrigel overnight at 4° C. For inducing differentiation, hESCs or iPSCs were dissociated at 70%-80% confluence using EDTA dissociation buffer and replated as a single cell suspension on matrigel-coated 24-well plates at a density of 100K cells/cm^2 in E6 medium containing 10 μM ROCK-inhibitor (Y-27632; R&D, 1254). The cells were kept in E6 medium (Thermo Fisher, A1516401)+Y-27632 overnight. The next day, the medium was switched to NC induction medium. For cranial differentiation, the cells were kept in E6 medium containing 10 μM SB431542 (R&D, 1614), […] (R&D, 314-BP), and 0.6 μM CHIR (R&D, 4423) for the first 2 days and then switched to E6 medium containing 10 μM SB431542 and 1.5 μM CHIR for 10 days. For vagal NC the same conditions were used with an additional 1 μM RA (Sigma, R2625) added to the medium starting from D6. To establish the sacral NC protocol, the cranial NC protocol was modified with varying concentrations of FGF2 (R&D, 233-FB/CF), CHIR and GDF11 (Peprotech, 120-11), added at different time points as detailed in the results section. For the generation of melanocytes, 100 nM EDN3 (American Peptide company, 88-5-10B) was added to the sacral NC protocol from day 14 to day 20. In experiments testing the RA hypothesis, the sacral NC protocol was modified using either 1 μM RA (Sigma, R2625) or 100 nM AGN (Tocris, 5758) as detailed in the experimental design section.
RNA extraction and RT-qPCR. RNA was prepared from samples collected with the Zymo Direct-zol Kit and extracted using the Direct-zol RNA MiniPrep kit. cDNA was generated using the iScript Reverse Transcription Supermix for RT-qPCR. For qPCR analysis, primers were obtained from QIAGEN or IDT and the reactions were performed following manufacturers' instructions using SsoFast EvaGreen® Supermix. The Assays were run on BioRad CFX384 Real-Time PCR machine. Results were normalized to GAPDH housekeeping genes.

rodent GSK3β homologs = conditions: against rodent GSK3β homologs; cited from earlier work
vagal NC = test: Migration (surface area) of NC cells in response to growth factors; format: cell-based, human; conditions: 0.1x, 1x, 10x of standard concentration (100 nM EDN3, 25 ng/ml GDNF)
Method: (§1) Fluorescence image of cells and their migration at different time points: 0 hour (upper panel), 24 hours (middle panel), 48 hours (bottom panel). Scale bars, 50 pm. […] Scale bars, 500 pm. […] N=6 biological replicates. FIGS. 32D and 32E show surface area VNC or SNC cells in response to different growth factors. 1 equates to standard concentration (100 nM and 25 ng/ml for EDN3 and GDN F respectively), 0.1 equates to 1/10 of standard concentration and 10 equates to 10 times higher than the standard concentration. Surface area is quantified by ImageJ. N=4 biological replicates. […] The images are taken at different time points after transplantation: 1 Hour (left panel), 2 weeks (middle panel), 4 weeks (right panel). […] Data are present as Mean±SEM; ns: not significant P>0.05; *P≤0.05; **P≤0.01; ***P≤0.001; ****P≤0.0001
(§2) Migration and co-differentiation assays. Transwell assay: to test capacity of NC cells for invasion, we used the CytoSelect 24-Well Cell Invasion Assay, Basement (Cell Biolabs). We plated 200K cells per chamber in neural spheroids medium and added 500 μL of neural spheroid medium containing 10% fetal bovine serum to the lower well of the invasion plate and incubated the plate for 48 h at 37° C. in 5% CO2 atmosphere. Cells that crossed through the invasion chamber were stained with the Cell Stain Solution provided with the kit (Cell Biolabs) and examined under the microscope. The stained cells were then lysed and measured by plate reader for quantification. Migration assay: vagal or sacral neural spheroids were generated as described in enteric neuron differentiation section. Those spheroids were plated down on a 2D PO/LM/FN coated plated for assessing surface migration or embedded in […]) Matrigel for assessing migration within a Matrigel pellet. Pictures were taken at sequential time points post plating to trace the migration process. Scratch assay: vagal or sacral NC cells were plated on PO/LM/FN coated 24 well plates at density of 100×10^3 cells per cm^2. After 24 h, the culture lawn is scratched manually using a pipette tip. Live images are taken at different time points after the scratch was made to trace the migration.

sacral NC = test: as above; format: cell-based, human
Method: as §1, §2

hPSCs [2] = test: RNA-seq and ATAC-seq of NC differentiation with or without GDF11; format: cell-based, human
Method: RNA sequencing (RNA-seq). Cells were disassociated with Accutase for 20 minutes at 37° C. The cells were collected into 15 mL falcon tubes and DMEMF-12 containing 2% FBS was added to neutralize the enzyme. The cells were spun down and washed with PBS twice. The cells were spun down again in 1.5 mL Eppendorf tube and resuspended in 500 μL TRIzol (ThermoFisher catalog #15596018) and stored at −80° C. When all data points were collected, the samples underwent RNA extraction and RNA-seq as performed by the IGO core at MSKCC. Briefly, phase separation in cells lysed in 1 mL TRIzol Reagent was induced with 200 μL chloroform and RNA was extracted from the aqueous phase using the miRNeasy Mini Kit (Qiagen catalog #217004) on the QIAcube Connect (Qiagen) according to the manufacturer's protocol with 350 μL input. Samples were eluted in 15 μL RNase-free water. After RiboGreen quantification and quality control by Agilent BioAnalyzer, 500 ng of total RNA with RIN values of 9.6-10 underwent polyA selection and TruSeq library preparation according to instructions provided by Illumina (TruSeq Stranded mRNA LT Kit, catalog #RS-122-2102), with 8 cycles of PCR. Samples were barcoded and run on a HiSeq 4000 in a PE100 run, using the HiSeq 3000/4000 SBS Kit (Illumina). An average of 53 million paired reads was generated per sample and the percent of mRNA bases averaged 85%.
RNA-seq bioinformatics. STAR aligner (Dobin et al., Bioinformatics 29, 15-21, 2013) was used to map reads to the human genome (GRCh37). The 2-pass mapping method (Engström et al., Nature methods 10, 1185-1191, 2013) was used, in which the reads are mapped twice. SAM files were processed and converted to BAM format using PICARD tools and then HTseq was used to compute the expression count matrix from the mapped reads. DESeq2 (Love et al., Genome Biology 15, 550, 2014) was used to normalize the raw counts (Median of Ratios method) and perform differential gene expression analysis. Data are presented on a gene-by-gene basis as normalized counts or after carrying out a variance-stabilizing transformation followed by PCA analysis.
ATAC sequencing (ATAC-seq). Cells were disassociated with Accutase for 20 minutes at 37° C. The cells were collected into 15 mL falcon tubes and DMEMF-12 containing 2% FBS was added to neutralize the enzyme. The cells were spun down and washed with PBS twice. The cells were spun again in a 1.5 mL Eppendorf tube and resuspended in 500 μL stem cell banker cell freezing buffer and stored at liquid nitrogen tank. When all data points were collected, the samples were sent to IGO core. ATAC-seq was performed by IGO core at MSKCC. Profiling of chromatin was performed by ATAC-Seq as described in Buenrostro et al., Nat Methods 10, 1213-1218, 2013. Briefly, 50,000 viably frozen neural crest cells were washed in cold PBS and lysed. The transposition reaction was carried out using TDEI Tagment DNA Enzyme (Illumina catalog #20034198) incubated at 37° C. for 30 minutes. The DNA was cleaned with the MinElute PCR Purification Kit (QIAGEN catalog #28004) and material was amplified for 5 cycles using NEBNext High-Fidelity 2×PCR Master Mix (New England Biolabs catalog #M0541L). After evaluation by real-time PCR, 7-10 additional PCR cycles were done. The final product was cleaned by aMPure XP beads (Beckman Coulter catalog #A63882) at a 1× ratio, and size selection was performed at a 0.5× ratio. […] An average of 42 million paired reads were generated per sample. […]

[3] = low to medium level of EDN3, GDNF
[4] = RNA seq, day 3, following GDF11 treatment
[5] = early exposure to GDF11 in combination with FGF2 and CHIR

FGF2: activator of FGF signaling (R&D, 233-FB/CF)
expression of HOX regulatory genes (CDX1, CDX2, CDX4) (hPSCs [1]): induced expression
expression of posterior genes HoxB7, HoxC9, HoxA10 and CDX4 (hPSCs [1]): induced the expression

Cc1c[nH]c(-c2cnc(NCCNc3ccc(C#N)cn3)nc2-c2ccc(Cl)cc2Cl)n1 [CHIR99021, 6-(2-(4-(2,4-dichlorophenyl)-5-(4-methyl-1H-imidazol-2-yl)pyrimidin-2-ylamino)ethylamino)nicotinonitrile, reference compound]
IC50 values (rodent GSK3β homologs): nanomolar
expression of HOX regulatory genes (CDX1, CDX2, CDX4) (hPSCs [1]): induced expression
expression of posterior genes HoxB7, HoxC9, HoxA10 and CDX4 (hPSCs [1]): induced the expression

Cc1ccc(C2=CCC(C)(C)c3ccc(C#Cc4ccc(C(=O)O)cc4)cc32)cc1 [AGN, reference compound]
HOXC9 expression (hPSCs [1]; RA 1 μM or AGN 100 nM added to NC protocol): increased
sacral HOX gene expression (hPSCs [1]; RA inhibition in GDF11 treated cultures): minimal impact
HOXC10 expression (hPSCs [1]; RA inhibition in trunk NC (BMP condition)): promoted

EDN3: growth factor EDN3 (American Peptide company, 88-5-10B) (CTCFTYKDKECVYYCHLDIIW; ends and bridges not checked; cysteine pairing not given here; UniProt P14138 97-117, looked up)
vagal NC migration (vagal NC): highly promoted
sacral NC migration (sacral NC; high EDN3 concentration): suppressed
sacral NC migration (sacral NC; [3]): promoted

B1: GDNF: glial cell line derived neurotrophic factor (Peprotech, 450-10) (protein, UniProt P39905 78-211, looked up)
Glial cell line-derived …: SPDKQMAVLPRRERNRQAAAANPENSRGKGRRGQRGKNRGCVLTAIHLNVTDLGLGYETKEELIFRYCSGSCDAAETTYDKILKNLSRNRRLVSDKVGQACCRPIAFDDDLSFLDDNLVYHILRKHSAKRCGCI
vagal NC migration (vagal NC): barely affected
sacral NC migration (sacral NC; [3]): promoted

B2: GDF11: growth differentiation factor 11 or bone morphogenetic protein 11, a TGFβ family protein encoded by the GDF11 gene (protein, UniProt O95390 299-407, looked up)
Growth/differentiation factor …: NLGLDCDEHSSESRCCRYPLTVDFEAFGWDWIIAPKRYKANYCSGQCEYMFMQKYPHTHLVQQANPRGSAGPCCTPTKMSPINMLYFNDKQQIIYGKIPGMVVDRCGCS
levels of H3K4 methyltransferases such as SMYD2 (hPSCs [2]; [4]): decreased levels
levels of H3K27Me3 demethylases JMJD6 and KDM6B (hPSCs [2]; [4]): increased levels
gene expression of GRHL1, GRHL2 and GRHL3 (hPSCs [2]; following GDF11 exposure): significant decrease
chromatin accessibility of GRHL factors (hPSCs [2]; following GDF11 exposure, ATAC-seq): significant decrease
expression of RA signaling genes CRABP2, CYP26A1 and RBP4 (hPSCs [2]; following GDF11 treatment): reduced
transition from TNCs to SNCs (hPSCs [1]): promoted the transition
expression of posterior Hox genes by time of addition (hPSCs [1]; GDF11 added from day 0 to day 3 versus later time points): higher expression
expression of stem cell-related factors SOX2 and MYC (hPSCs [1]; GDF11 treated cultures): increased expression
expression of the more anterior HOX genes (HOX4-9) (hPSCs [1]; [5]): without affecting
sacral HOX gene expression (HOX10-13) (hPSCs [1]; [5]): dramatic and selective increase
